{
  "source": "paper PMC3383001",
  "about": "(Cell, 2012)",
  "binders": {"B1": {"name": "SUN2(522–717), minimal SUN domain of human SUN2 used for crystallography (domain or fragment, UniProt Q9UH99 522-717, looked up)", "chain": "GVTEEQVHHIVKQALQRYSEDRIGLADYALESGGASVISTRCSETYETKTALLSLFGIPLWYHSQSPRVILQPDVHPGNCWAFQGPQGFAVVRLSARIRPTAVTLEHVPKALSPNSTISSAPKDFAIFGFDEDLQQEGTLLGKFTYDQDGEPIQTFHFQAPTMATYQVVELRILTNWGHPEYTCIYRFRVHGEPAH"}},
  "key": {"[1]": {"molecular_target": "the molecule itself", "test": "crystal structure"}, "[2]": {"molecular_target": "B1", "test": "crystal structure"}, "[3]": {"molecular_target": "the molecule itself", "test": "AUC"}, "[4]": {"molecular_target": "B1", "test": "crystal structure", "remark": "listed apart in the source"}},
  "data": [
    {"binder": "B1", "values": [
      {"measurement": "stoichiometry N", "setting": "[1]", "result": 3}
    ]},
    {"binder": "KASH1 peptide (Nesprin-1, residues 8769–8797) co-expressed with SUN2(522–717) (peptide) peptide: not shown", "values": [
      {"measurement": "binding result", "setting": "[2]", "result": "binds"}
    ]},
    {"binder": "His-SUN2(335–717), luminal domain of human SUN2 (predicted coiled-coil regions and SUN domain) (domain or fragment, UniProt Q9UH99 335-717, looked up) LVSRREAALKEDFRRETAARIQEELSALRAEHQQDSEDLFKKIVRASQESEARIQQLKSEWQSMTQESFQESSVKELRRLEDQLAGLQQELAALALKQSSVAEEVGLLPQQIQAVRDDVESQFPAWISQFLARGGGGRVGLLQREEMQAQLRELESKILTHVAEMQGKSAREAAASLSLTLQKEGVIGVTEEQVHHIVKQALQRYSEDRIGLADYALESGGASVISTRCSETYETKTALLSLFGIPLWYHSQSPRVILQPDVHPGNCWAFQGPQGFAVVRLSARIRPTAVTLEHVPKALSPNSTISSAPKDFAIFGFDEDLQQEGTLLGKFTYDQDGEPIQTFHFQAPTMATYQVVELRILTNWGHPEYTCIYRFRVHGEPAH", "values": [
      {"measurement": "stoichiometry N", "setting": "[3]", "result": 3}
    ]},
    {"binder": "KASH2 peptide (Nesprin-2, residues 6857–6885) co-expressed with SUN2(522–717) (peptide) peptide: not shown", "values": [
      {"measurement": "stoichiometry N", "setting": "[4]", "result": "3 KASH2 peptides per SUN2 trimer"}
    ]}
  ]
}
